Measurements taken from patent US20110294738A1, “PTHR1 RECEPTOR COMPOUNDS” (priority 2008, published 2011).
* marks the point of attachment. Palmitoyl = CCCCCCCCCCCCCCCC(=O)*

Tests used:
[1] = target: T1, PTHR1 (Rattus norvegicus, UniProt P25961)
T1 sequence (P25961 27-591): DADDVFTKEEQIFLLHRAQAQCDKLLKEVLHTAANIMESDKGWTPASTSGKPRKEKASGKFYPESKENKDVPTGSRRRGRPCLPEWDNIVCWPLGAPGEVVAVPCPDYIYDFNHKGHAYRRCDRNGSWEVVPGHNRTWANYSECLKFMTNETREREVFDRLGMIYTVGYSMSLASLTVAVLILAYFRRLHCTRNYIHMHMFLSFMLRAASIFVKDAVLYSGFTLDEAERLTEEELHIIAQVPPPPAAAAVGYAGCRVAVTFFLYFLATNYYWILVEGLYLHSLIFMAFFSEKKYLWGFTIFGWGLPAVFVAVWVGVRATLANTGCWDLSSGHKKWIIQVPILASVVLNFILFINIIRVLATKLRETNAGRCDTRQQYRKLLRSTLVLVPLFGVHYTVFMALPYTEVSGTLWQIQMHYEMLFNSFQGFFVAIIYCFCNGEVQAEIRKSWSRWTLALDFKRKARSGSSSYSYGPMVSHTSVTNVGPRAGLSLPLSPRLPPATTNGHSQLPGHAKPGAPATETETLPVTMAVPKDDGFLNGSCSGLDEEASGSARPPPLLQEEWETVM
Procedure: (§1) cAMP Screening Assay Using DiscoveRX XS+ Kit
(§2) UMR-106 cells were seeded in 96-well white plates at 10K cells/well in growth media. Twenty four hours after seeding, cell media was removed by gentle dumping and replaced with 30 μL of compounds diluted to 10 μM final concentration in assay buffer (Hank's balanced Salt Solution, 20 mM HEPES, pH 7.4, 0.1 μM IBMX). After 30 minute incubation at room temperature, 10 μL human PTH1-34 serial diluted in assay buffer was added. Cells were incubated at 37° C. for 15 minutes before 10 μL of water soluble analog of forskolin, NKH477 was added to final concentration of 10 μM followed by 60 minute incubation at room temperature. DiscoveRX cAMP XS+ kit reagents were then added following manufacture protocol. Briefly, 10 μL of antibody was added to each well followed by 40 μL of ED/Lysis buffer mix (1/5/19 for Galacon-star/Emerald/Lysis buffer and then 1:1 with ED). After 1 hour incubation, 40 μL of EA reagent was added followed by at least 1 hour incubation before the plates were read on TopCount reader. Data was analyzed using GraphPad Prism. PTH1-34 dose-response curves were fitted using non-linear curve fit (Y=Bottom+(Top−Bottom)/(1+10̂((Log EC50−X)*HillSlope))). PTH1-34 EC50 values calculated in the presence of compounds were compared to that in the presence of vehicle control. The ratio of the EC50 values were calculated and presented as fold shift (EC50 compound/EC50 vehicle). The effect of compounds on PTH1-34 stimulated maximal response was also assessed and was presented percent inhibition (1−(Emax compound/Emax vehicle)).

[2] = target: T1, PTHR1; assay: cAMP screening assay using DiscoveRX XS+ kit (PTH1-34 dose-response in UMR-106 cells); conditions: compound 10 μM, PTH1-34 stimulated maximal response, 1−(Emax compound/Emax vehicle)
Procedure: as §1, §2

| Substance | Fold Shift of EC50 [1] | Inhibition of Maximal Response [2] [%] |
| --- | --- | --- |
| LYLHSLIFMAFFSEKKYLWG [Compound 38] | 1.1 | 21.90 |
| SGRVLATKLR [Compound 71] | 0.8 | 13.50 |
| TNAGRSDTRQQYRKLLK [Compound 84] | 9.1 | −25.20 |
| RVLATKLRETNAGR [Compound 75] | 1.1 | 12.60 |
| NIVRVLATKLRE [Compound 55] | 0.6 | 26.10 |
| LYLHSLIFMAFFSEKKYL [Compound 39] | 1.3 | 29.30 |
| TNAGRSDTRQQYRKLLF [Compound 83] | 7 | −5.80 |
| HSLIFMAFFSEKKYLWGFT [Compound 36] | 1.2 | 5.90 |
| GGYFRRLHSTRNYIH [Compound 13] | 0.7 | 29.20 |
| LAYFRRLHSTR [Compound 4] | 0.9 | −74.20 |
| TNAGRSDTRQQYRKLLKSTL [Compound 52] | 11.1 | 1.70 |
| LHSLIFMAFFSEKKYLWGFT [Compound 37] | 1.1 | 35.60 |
| RRLHSTRNYIHMH [Compound 1] | 1.3 | 5.50 |
| YFRRLHSTRNYIH [Compound 6] | 1 | 10.80 |
| HSLIFMAFFSEKKYL [Compound 33] | 1.1 | 27.50 |
| RETNAGRSDTRQQY [Compound 62] | 1.1 | −5.40 |
| TNAGRSDTRQQYRKLLKS [Compound 64] | 7 | −0.10 |
| NGEVQAEIKKSWSRWT [Compound 101] | 1.2 | 25.30 |
| TNAGRSDTRQQYRKLLFA [Compound 86] | 3.6 | 5.20 |
| SWSRWTLALDFKRKAR [Compound 102] | 1 | −25.40 |

| Substance | Fold Shift of EC50 [1] | Inhibition of Maximal Response [2] [%] |
| --- | --- | --- |
| SRWTLALDFKRKAR [Compound 104] | 1.2 | 26.80 |
| SGRVLATKLRET [Compound 72] | 0.7 | 22.30 |
| VRVLATKLRETNAGRSDTR [Compound 45] | 1.4 | 9.10 |
| RRLHSTRNYIHM [Compound 15] | 1.7 | 1.50 |
| KLRETNAGRSDTRQQRKLL [Compound 47] | 2.7 | 8.30 |
| TNAGRSDTRQQYRK [Compound 69] | 5.2 | 2.50 |
| TNAGRSDTRQQYRF [Compound 70] | 2 | 15.10 |
| LAYFRRLHSTRNYI [Compound 9] | 1.1 | 12.70 |
| RETNAGRSDTRQQRKLLKS [Compound 48] | 7 | −3.30 |
| NGEVQAEIKKSWSRWTLA [Compound 98] | 1 | 0.50 |
| SGRRLHSTRNYIHMH [Compound 17] | 2.8 | 39.40 |
| TNAGRADTRQQYRKLL [Compound 77] | 6.9 | 9.90 |
| DTRQQYRKLLKS [Compound 67] | 6 | 6.90 |
| TNAGRSDTRQQYRKLA [Compound 88] | 2.8 | −25.00 |
| AYFRRLHSTRNYIH [Compound 7] | 1.2 | 36.00 |
| TNAGRSDTRQQYRKLLA [Compound 87] | 4.1 | 8.00 |
| RQQYRKLLKSTL [Compound 57] | 15.6 | −38.80 |
| NIVRVLATKLRETNAGRSD [Compound 44] | 2 | −8.30 |
| NGEVQAEIKKSWSR [Compound 100] | 1.8 | 26.80 |
| KLRETNAGRSDTRQQY [Compound 53] | 2.1 | 6.40 |

| Substance | Fold Shift of EC50 [1] | Inhibition of Maximal Response [2] [%] |
| --- | --- | --- |
| RETNAGRSDTRQQYRKLL [Compound 59] | 5.2 | 3.00 |
| RSDTRQQYRKLLKS [Compound 66] | 16.4 | −39.00 |
| GSEKKYLWG [Compound 43] | 1.4 | 5.70 |
| LAYFRRLHSTRN [Compound 14] | 0.7 | 15.20 |
| RETNAGRSDTRQ [Compound 63] | 1.1 | 1.20 |
| LAYFRRLHSTRNYIHMH [Compound 10] | 1.1 | 24.10 |
| Pal-NGEVQAEIKKSWSRWTLALD-amide (Palmitoyl-NGEVQAEIKKSWSRWTLALD-NH2; SMILES CCCCCCCCCCCCCCCC(=O)N[C@@H](CC(N)=O)C(=O)NCC(=O)N[C@@H](CCC(=O)O)C(=O)N[C@H](C(=O)N[C@@H](CCC(N)=O)C(=O)N[C@@H](C)C(=O)N[C@@H](CCC(=O)O)C(=O)N[C@H](C(=O)N[C@@H](CCCCN)C(=O)N[C@@H](CCCCN)C(=O)N[C@@H](CO)C(=O)N[C@@H](Cc1c[nH]c2ccccc12)C(=O)N[C@@H](CO)C(=O)N[C@@H](CCCNC(=N)N)C(=O)N[C@@H](Cc1c[nH]c2ccccc12)C(=O)N[C@H](C(=O)N[C@@H](CC(C)C)C(=O)N[C@@H](C)C(=O)N[C@@H](CC(C)C)C(=O)N[C@@H](CC(=O)O)C(N)=O)[C@@H](C)O)[C@@H](C)CC)C(C)C) [Compound 105] | 1.1 | 34.00 |
| GSEKKYLWGFT [Compound 42] | 1.3 | 40.80 |
| EIKKSWSRWTLALDFKRKAR [Compound 96] | 1.1 | 7.00 |
| NIVRVLATKLRETNAGR [Compound 54] | 0.7 | 17.50 |
| YLHSLIFMAFFSEKKYLWGFT [Compound 35] | 1.1 | 24.50 |
| SGRVLATKLRETNAGR [Compound 74] | 1.9 | 22.20 |
| VLATKLRETNAGRSDTRQQ [Compound 46] | 0.9 | 20.30 |
| RETNAGRSDTRQQYRF [Compound 61] | 0.7 | −47.60 |
| DTRQQYRKLLKSTL [Compound 56] | 1.9 | −30.40 |
| KKSWSRWTLALDFKRKAR [Compound 97] | 4.7 | 37.20 |
| SGRVLATKLRETNA [Compound 73] | 0.8 | 32.30 |
| Pal-GSEKKYLWGFTVF-amide (Palmitoyl-GSEKKYLWGFTVF-NH2; SMILES CCCCCCCCCCCCCCCC(=O)NCC(=O)N[C@@H](CO)C(=O)N[C@@H](CCC(=O)O)C(=O)N[C@@H](CCCCN)C(=O)N[C@@H](CCCCN)C(=O)N[C@@H](Cc1ccc(O)cc1)C(=O)N[C@@H](CC(C)C)C(=O)N[C@@H](Cc1c[nH]c2ccccc12)C(=O)NCC(=O)N[C@@H](Cc1ccccc1)C(=O)N[C@H](C(=O)N[C@H](C(=O)N[C@@H](Cc1ccccc1)C(N)=O)C(C)C)[C@@H](C)O) [Compound 41] | 0.9 | 17.70 |
| LAYFRRLHSTRNYIH [Compound 5] | 1 | 13.00 |
